According to patent publication US20220411487A1 (Regeneron, published 2022):

T1: full-length mouse TMPRSS6 with a C-terminal triple myc tag on HEK293.hHJV cells (HEK293.hHJV/3xMyc.mTMPRSS6) (mouse, UniProt Q9DBI0 1-811)
T1 sequence: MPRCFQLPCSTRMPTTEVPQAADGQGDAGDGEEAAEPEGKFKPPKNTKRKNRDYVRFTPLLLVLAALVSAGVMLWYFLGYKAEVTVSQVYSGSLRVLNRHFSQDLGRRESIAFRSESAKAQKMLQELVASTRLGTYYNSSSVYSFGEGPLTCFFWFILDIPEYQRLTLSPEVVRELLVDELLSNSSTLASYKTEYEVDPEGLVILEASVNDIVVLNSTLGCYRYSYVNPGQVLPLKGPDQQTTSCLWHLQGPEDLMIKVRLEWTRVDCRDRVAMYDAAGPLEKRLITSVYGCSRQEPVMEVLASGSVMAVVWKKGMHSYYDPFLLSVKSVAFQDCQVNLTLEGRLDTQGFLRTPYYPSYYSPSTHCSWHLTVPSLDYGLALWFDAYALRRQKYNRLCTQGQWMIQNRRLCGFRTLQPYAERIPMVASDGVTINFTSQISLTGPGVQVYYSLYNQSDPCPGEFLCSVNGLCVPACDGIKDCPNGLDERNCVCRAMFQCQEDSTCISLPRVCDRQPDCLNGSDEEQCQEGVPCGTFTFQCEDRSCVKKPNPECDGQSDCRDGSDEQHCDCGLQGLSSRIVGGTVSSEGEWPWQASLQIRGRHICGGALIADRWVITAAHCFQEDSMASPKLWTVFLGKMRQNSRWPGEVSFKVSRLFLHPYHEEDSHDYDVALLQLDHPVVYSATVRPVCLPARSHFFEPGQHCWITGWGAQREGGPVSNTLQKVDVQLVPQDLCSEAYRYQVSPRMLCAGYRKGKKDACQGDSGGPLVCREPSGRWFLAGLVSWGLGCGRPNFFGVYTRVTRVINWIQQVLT

T2: mfTMPRSS6_S751A-MMH (Macaca fascicularis, UniProt Q8IU80 77-811 (human entry))
T2 construct: also called REGN5977; Macaca fascicularis TMPRSS6 extracellular domain with a S751A mutation and a C-terminal myc-myc-hexahistidine tag
T2 chain: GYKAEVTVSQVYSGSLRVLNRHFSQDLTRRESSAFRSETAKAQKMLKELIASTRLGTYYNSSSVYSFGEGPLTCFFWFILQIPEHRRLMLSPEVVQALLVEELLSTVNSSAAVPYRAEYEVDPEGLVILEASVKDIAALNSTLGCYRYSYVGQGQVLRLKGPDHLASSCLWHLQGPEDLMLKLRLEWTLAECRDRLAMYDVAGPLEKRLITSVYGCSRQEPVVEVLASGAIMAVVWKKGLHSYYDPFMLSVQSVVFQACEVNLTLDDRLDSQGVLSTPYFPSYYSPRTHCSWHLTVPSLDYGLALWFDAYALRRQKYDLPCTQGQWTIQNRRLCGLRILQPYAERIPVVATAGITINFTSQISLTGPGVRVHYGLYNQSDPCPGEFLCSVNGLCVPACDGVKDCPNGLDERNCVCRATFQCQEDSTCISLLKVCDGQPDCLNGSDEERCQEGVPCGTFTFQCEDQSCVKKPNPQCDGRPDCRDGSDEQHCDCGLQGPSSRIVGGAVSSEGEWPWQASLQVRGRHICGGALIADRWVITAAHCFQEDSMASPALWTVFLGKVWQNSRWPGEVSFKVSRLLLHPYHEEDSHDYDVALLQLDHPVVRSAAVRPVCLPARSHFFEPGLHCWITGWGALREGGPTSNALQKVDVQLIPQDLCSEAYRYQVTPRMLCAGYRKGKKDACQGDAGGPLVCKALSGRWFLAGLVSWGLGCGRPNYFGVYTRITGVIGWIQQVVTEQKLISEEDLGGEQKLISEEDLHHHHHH


Assays:
[1] = target: T1, full-length mouse TMPRSS6 with a …; test: cell-based or functional assay
[2] = target: T2, mfTMPRSS6_S751A-MMH; test: SPR, mAb captured via anti-hFc, 37 C
Experimental: (§1) The equilibrium dissociation constant (KD) for TMPRSS6 binding to different TMPRSS6 monoclonal antibodies (mAbs) was determined using a real-time surface plasmon resonance biosensor using a Biacore 4000 instrument. All binding studies were performed in 10 mM HEPES, 150 mM NaCl, 3 mM EDTA, and 0.05% v/v Surfactant Tween-20, pH 7.4 (HBS-ET) running buffer at 25° C. and 37° C. The Biacore CM5 sensor chip surface was first derivatized by amine coupling with a human Fc specific mouse mAb to capture different TMPRSS6 mAbs. […] Different concentrations (100 nM to 3.7 nM, 3-fold serial dilution) of the TMPRSS6 reagent proteins prepared in HBS-EP running buffer were injected over the TMPRSS6 mAb captured surface for 150 seconds at a flow rate of 30 μL/min and their dissociation in HBS-ET running buffer was monitored for 10 minutes. At the end of each cycle, the TMPRSS6 mAb captured surface was regenerated using a 12 second injection of 20 mM phosphoric acid.
(§2) The association rate (kₐ) and dissociation rate (kd) were determined by fitting the real-time binding sensorgrams to a 1:1 binding model with mass transport limitation using Scrubber 2.0 (BioLogic Software) curve-fitting software. Binding dissociation equilibrium constant (KD) and dissociative half-life (t½) were calculated from the kinetic rates as: […]

[3] = target: T3, hTMPRSS6_S762A-MMH (human, UniProt Q8IU80 77-811); test: SPR, mAb captured via anti-hFc, 37 C
T3 construct: also called REGN5330; human TMPRSS6_S762A-MMH
Experimental: as §1, §2

IC50, soluble hHJV release (ELISA) [1] [nM]	Inhibition (%) of soluble hHJV release (ELISA) [1] [%]	100 nM Ag Bound [2] [RU]	Kd [2] [nM]	koff [2] [s⁻¹]	kon [2] [M⁻¹ s⁻¹]	t½ [2] [min]	100 nM Ag Bound [3] [RU]	Kd [3] [nM]	koff [3] [s⁻¹]	kon [3] [M⁻¹ s⁻¹]	t½ [3] [min]	Binder
0.0826	98.5	143	0.75	0.000306	408000	38	129	2.3	0.000354	154000	33	REGN7999 (antibody, human IgG4 S228P, kappa, V domains shown, fully human; human IgG4 Fc with hinge S108P; also called mAb41450) VH: EVQLVESGGGLVQPGGSLRLSCAASGFTFSSYAMTWVRQAPGKGLEWVSAISGSDTSTYYADSVKGRFTISRDNSKNTLFLQMNSLRAEDTAVYYCAKHQDYDFSYYYSAMDVWGQGTTVTVSS VL: DIQMTQSPSSLSASVGDRVIITCRASQDFNSWLAWYQQKPGKAPKLLIYAASSLQSGVPSRFSGSGSGTDFTLTISSLQPEDFATYYCQQTDSFPFTFGPGTKVDIKR
–	46.4	133	11.9	0.00247	207000	4.7	134	11	0.00124	113000	9	REGN7977 (antibody, V domains shown, fully human; human IgG4 Fc with hinge S108P; also called mAb41465) VH: EVQLVESGGGLVKPGGSLRVSCAASGVTFSNVWMSWVRQVPGKGLEWVGRIKSKTDGGTTDYAAPVKGRFTISKDDSKNTLFLQMNSLKTEDTAVYYCTTETGDFWSGYYPRFQHWGQGTLVTVSS VL: DIQMTQSPSSLSASVGDRVTITCRASQYISTYLNWYQQKPGKAPSLLIYAASSLQSGVPSRFSGSGSGTDFTLTISSLQPEDFASYSCQQSYSTPPYTFGQGTKLEIKR
0.274	42	206	1	0.000634	632000	18	205	2.24	0.000935	418000	12	REGN8023 (antibody, human IgG4 S228P, kappa, V domains shown, fully human; human IgG4 Fc with hinge S108P; also called mAb37699) VH: EVQLVESGGGLVKPGGSLRISCAASGFIFVDYAMHWVRQAPGKGLEWVSGISWNSGSIGYADSVKGRFTISRDNAKKSLYLQMSGLRPEDTALYYCVKSGFYYVRSYFDNWGQGTLVTVSS VL: DIVMTQSPLSLPVTPGEPASISCRSSQSLLDSDDGNTYLDWYLRKPGQSPQLLIYTLSYRASGVPDRFSGSGSGTDFTLKISRVEADDVGVYYCMQRIEFPLTFGGGTKVEIKR

The next lines start with the binder.

Binder	IC50, soluble hHJV release (ELISA) [1] [nM]	Inhibition (%) of soluble hHJV release (ELISA) [1] [%]	100 nM Ag Bound [2] [RU]	Kd [2] [nM]	koff [2] [s⁻¹]	kon [2] [M⁻¹ s⁻¹]	t½ [2] [min]	100 nM Ag Bound [3] [RU]	Kd [3] [nM]	koff [3] [s⁻¹]	kon [3] [M⁻¹ s⁻¹]	t½ [3] [min]
REGN7974 (antibody, human IgG4 S228P, kappa, V domains shown, fully human; human IgG4 Fc with hinge S108P; also called mAb41422) VH: EVQLVESGGGLVQPGRSLRLSCIASGFNFGDYGMSWVRQAPGKGLEWVGFIRSKAYGGTTEYAASVKGRFTISRDDSKSIAYLQMNSLKTEDAAMYYCSRDYYDILTGYYGDYWGQGTLVTVSS VL: not shown	–	11.8	183	16.1	0.00405	251000	2.9	206	21.2	0.00235	111000	4.9
REGN7969 (antibody, human IgG4 S228P, kappa, V domains shown, fully human; human IgG4 Fc with hinge S108P; also called mAb37746) VH: QVQLVESGGGVVQPGRSLRLSCAASGFTFNNYGMHWVRQAPGKGLEWVAIISYDGSNEYYSDSVKGRFTISRDNSKNTLYLQMNSLRAEDTAVYYCARDQDYGGNLFHYWGQGTLVTVSS VL: not shown	–	< 1	105	3.27	0.000924	283000	12	110	4.4	0.000975	222000	12
REGN7971 (antibody, human IgG4 S228P, kappa, V domains shown, fully human; human IgG4 Fc with hinge S108P; also called mAb37763) VH: QVQLVESGGGVVQPGRSLRLSCAASGFTFSTYGMHWVRQAPGKGLEWVAIISYDGSNDYYLDSVKGRFTISRDNSKNTLYLQMNNLRAEDTAVYYCAKDQGYGGNLFASWGQGTLVTVSS VL: not shown	–	10.2	160	1.68	0.00061	363000	19	169	2.44	0.000637	261000	18
